# B1: crRNA13a-Cy3 (unmasked) (structured_RNA)
# RNA: GAUUUAGACUACCCCAAAAACGAAGGGGACUAAAACUAGAUUGCUGUUCUACCAAGUAAUCCAU
# Target: T1, dCas13a (LbuCas13a R1079A/K1080A) (Leptotrichia buccalis, UniProt C7NBY4 1-1159, R1079A;K1080A)
# T1 sequence: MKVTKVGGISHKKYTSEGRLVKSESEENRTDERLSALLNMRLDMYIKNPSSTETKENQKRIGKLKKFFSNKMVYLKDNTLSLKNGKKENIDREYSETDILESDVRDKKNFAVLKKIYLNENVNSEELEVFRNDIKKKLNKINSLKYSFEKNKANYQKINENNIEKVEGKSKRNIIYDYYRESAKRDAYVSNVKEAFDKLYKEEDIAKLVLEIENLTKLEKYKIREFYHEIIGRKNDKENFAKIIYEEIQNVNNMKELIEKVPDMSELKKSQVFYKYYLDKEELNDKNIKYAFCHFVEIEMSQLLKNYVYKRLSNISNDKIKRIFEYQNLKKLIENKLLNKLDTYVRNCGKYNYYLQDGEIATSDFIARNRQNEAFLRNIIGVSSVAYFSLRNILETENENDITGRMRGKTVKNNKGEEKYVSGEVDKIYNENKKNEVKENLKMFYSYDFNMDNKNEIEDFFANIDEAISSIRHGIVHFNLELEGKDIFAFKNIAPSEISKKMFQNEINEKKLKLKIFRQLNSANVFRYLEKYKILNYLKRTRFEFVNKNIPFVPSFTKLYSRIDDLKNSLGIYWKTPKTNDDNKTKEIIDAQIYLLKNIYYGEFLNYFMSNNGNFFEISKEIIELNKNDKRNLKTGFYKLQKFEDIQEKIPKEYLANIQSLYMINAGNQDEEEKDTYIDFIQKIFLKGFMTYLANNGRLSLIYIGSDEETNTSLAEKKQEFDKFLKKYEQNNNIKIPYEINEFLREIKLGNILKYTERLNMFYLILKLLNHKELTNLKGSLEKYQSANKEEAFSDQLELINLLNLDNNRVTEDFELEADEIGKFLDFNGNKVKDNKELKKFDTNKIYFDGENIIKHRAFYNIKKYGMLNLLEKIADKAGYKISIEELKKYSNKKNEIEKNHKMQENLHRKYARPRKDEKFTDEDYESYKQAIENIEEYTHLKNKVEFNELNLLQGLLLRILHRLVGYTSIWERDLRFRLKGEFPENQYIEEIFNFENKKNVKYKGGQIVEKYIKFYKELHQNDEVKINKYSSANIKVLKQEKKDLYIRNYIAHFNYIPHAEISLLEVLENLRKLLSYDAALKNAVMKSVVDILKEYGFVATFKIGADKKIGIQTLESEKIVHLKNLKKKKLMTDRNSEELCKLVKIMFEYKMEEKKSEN
# Assay: EMSA; no target RNA; dCas13a EMSA: 20 mM HEPES pH 6.8 (25 C), 50 mM KCl, 10 ug/mL BSA, 100 ug/mL yeast tRNA, 0.01% Igepal CA-630, 5% glycerol; 10 min at 37 C; 6% native PAGE at 4 C
# Details: protein: recombinant; tags: His6-MBP removed with TEV protease; label: 5'-Cy3; single strand, repeat hairpin
binder,measurement,value
B1,binding result,binds

# Source: PMC6941951, “Conditional control of RNA-guided nucleic acid cleavage and gene editing”
